This note sets out measurements from publication PMC7205207, “Modeling and mitigation of high-concentration antibody viscosity through structure-based computer-aided protein design” (PLoS ONE, 2020).

In series [1] the target is T1, human PDGF-BB (platelet derived growth factor B homodimer) (human, UniProt P01127).
T1 construct: Platelet derived growth factor B, human, homodimer, bought from PeproTech; the printed catalogue number may stand for 100-14B; source: bought: PeproTech, Catalog 100-148
As to the kind of experiment: SPR; Biacore T200, full kinetics; antibody captured by anti-human IgG on a CM5 chip; human PDGF-BB at 20, 10, 5, 2.5 and 1.25 nM, 50 s injection; HBS-EP+ N; 25 C; 1:1 Langmuir fit. The settings on record: both partners purified. For orientation: Surface plasmon resonance follows binding to a sensor surface in real time, without labels.

The target in series [2] is T1, human PDGF-BB (platelet derived growth …). The series is described as follows: SPR; Biacore T200, off-rate screen; antibody captured (~70 to 100 RU) by anti-human IgG amine-coupled to a CM5 chip; human PDGF-BB injected at a single 2.5 nM for 170 s, dissociation 300 s; HBS-EP+ N (10 mM HEPES, 500 mM NaCl, 3 mM EDTA, 0.05% Tween20, pH 7.4); 25 C. The settings on record: both partners purified.

Series [3] has the same target. The series is described as follows: SPR; Biacore T200, full kinetics; antibody captured by anti-human IgG on a CM5 chip; human PDGF-BB at 20, 10, 5, 2.5 and 1.25 nM, 50 s injection; HBS-EP+ N; 25 C; 1:1 Langmuir fit. The settings on record: both partners purified. This is another data set of the same source.
Series [4] is described as follows: AC-SINS; self-association assay, as in Avery et al. [35]; score = smoothed max absorbance of the antibody sample minus that of the average blank (PBS); scores >=11 considered high. To be noted: other: AC-SINS.

T1 sequence (P01127 82-190): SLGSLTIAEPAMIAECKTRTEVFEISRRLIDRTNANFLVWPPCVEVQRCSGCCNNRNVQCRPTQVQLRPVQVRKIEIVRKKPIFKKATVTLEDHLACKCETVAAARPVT

B1: R2-006 (antibody, V domains shown)
VH: EVQLLQSGGGLVKPGGSLRLSCAASGFTFSSYAMSWVRQAPGKGLEWVSYISDDGSLKYYADSVKGRFTISRDNSKNTLYLQMNSLRAEDTAVYYCARHPYWYGGQLDLWGQGTLVTVSS
VL: SYVLTQPPSVSVAPGKTARITCSGDSLGSYFVHWYQQKPGQSPVLVIYDDKKRPSGIPERFSGSNSGNTATLTISGTQAMDEADYYCSAFTHNSDVFGGGTKLTVL
notes: as the VH of m20 (R2-001_HC); as the VL of m20 (R2-001_LC) with S52K (Kabat); only the variable regions are written; source: HEK293, transient, purified from conditioned medium (protein A, TMAE, HIC)
In series [1], B1 registered a Kd of 0.0888 ± 0.0295 nM, a koff of 0.000336 s⁻¹ and a kon of 3.97e+06 M⁻¹ s⁻¹. Further, in series [2], the koff came out at 0.000366 s⁻¹. Further, binding in series [3] was put at a Kd of 0.103 nM. Further, the AC-SINS Score in series [4] is 25.

B2: R2-015 (antibody, V domains shown)
VH: EVQLLQSGGGLVKPGGSLRLSCAASGFTFSSYAMSWVRQAPGKGLEWVSYISDDGSLKYYANSVKGRFTISRDNSKNTLYLQMNSLRAEDTAVYYCARHPYWYGGQLDLWGQGTLVTVSS
VL: SYVLTQPPSVSVAPGKTARITCSGDSLGSYFVHWYQQKPGQSPVLVIYDDSKRPSGIPERFSGSNSGNTATLTISGTQAMDEADYYCSAFTHNSDVFGGGTKLTVL
notes: as the VH of m20 (R2-001_HC) with D61N; as the VL of m20 (R2-001_LC); only the variable regions are written; source: HEK293, transient, purified from conditioned medium (protein A, TMAE, HIC)
As for B2, in series [2], the koff turned out to be 0.000834 s⁻¹.

B3: R2-001 (antibody, V domains shown)
VH: EVQLLQSGGGLVKPGGSLRLSCAASGFTFSSYAMSWVRQAPGKGLEWVSYISDDGSLKYYADSVKGRFTISRDNSKNTLYLQMNSLRAEDTAVYYCARHPYWYGGQLDLWGQGTLVTVSS
VL: SYVLTQPPSVSVAPGKTARITCSGDSLGSYFVHWYQQKPGQSPVLVIYDDSKRPSGIPERFSGSNSGNTATLTISGTQAMDEADYYCSAFTHNSDVFGGGTKLTVL
notes: R2-001_HC: as the VH of m17 (R1-016), on which R2-001 was built; R2-001_LC: as the VL of m17 (R1-016) with FW1 changed to that of IGLV3-21*01; only the variable regions are written; also called round 2 parental R2-001; R2-001_HC with R2-001_LC; source: HEK293, transient, purified from conditioned medium (protein A, TMAE, HIC)
B3: in series [1], binding was put at a Kd of 0.102 ± 0.0323 nM, the koff stood at 0.000292 s⁻¹ and the kon is 3.09e+06 M⁻¹ s⁻¹. Moreover, in series [2], the off-rate constant (koff) stood at 0.000417 s⁻¹. This molecule came in with an AC-SINS Score in series [4] of 24.

B4: R2-009 (antibody, V domains shown)
VH: EVQLLQSGGGLVKPGGSLRLSCAASGFTFSSYAMSWVRQAPGKGLEWVSYISDDGSLKYYADSVKGRFTISRDNSKNTLYLQMNSLRAEDTAVYYCARHPYWYGGQLDLWGQGTLVTVSS
VL: SYVLTQPPSVSVAPGKTARITCSGDSLGSYFVHWYQQKPGQSPVLVIYDDSKRPSGIPERFSGSNSKNTATLTISGTQAMDEADYYCSAFTHNSDVFGGGTKLTVL
notes: as the VH of m20 (R2-001_HC); as the VL of m20 (R2-001_LC) with G68K (Kabat); only the variable regions are written; source: HEK293, transient, purified from conditioned medium (protein A, TMAE, HIC)
Molecule B4 displayed a koff in series [2] of 0.000265 s⁻¹.

B5: R2-020 (antibody, V domains shown)
VH: EVQLLQSGGGLVKPGGSLRLSCAASGFTFSSYAMSWVRQAPGKGLEWVSYISDDGSLKYYADSVKGRFTISRDNSKNTLYLQMNSLRAEDTAVYYCARHPYWYGGQLDLWGQGTLVTVSS
VL: SYVLTQPPSVSVAPGKTARITCSGDSLGSYFVHWYQQKPGQSPVLVIYDNSKRPSGIPERFSGSNSGNTATLTISGTQAMDEADYYCSAFTHNSDVFGGGTKLTVL
notes: as the VH of m20 (R2-001_HC); as the VL of m20 (R2-001_LC) with D51N (Kabat); only the variable regions are written; source: HEK293, transient, purified from conditioned medium (protein A, TMAE, HIC)
In series [1], B5 yielded a Kd of 0.299 ± 0.00683 nM, a koff of 0.00061 s⁻¹ and a kon of 2.04e+06 M⁻¹ s⁻¹. The molecule further displayed a koff in series [2] of 0.000386 s⁻¹. In series [4], this molecule had an AC-SINS Score of 4.

B6: R2-008 (antibody, V domains shown)
VH: EVQLLQSGGGLVKPGGSLRLSCAASGFTFSSYAMSWVRQAPGKGLEWVSYISDDGSLKYYADSVKGRFTISRDNSKNTLYLQMNSLRAEDTAVYYCARHPYWYGGQLDLWGQGTLVTVSS
VL: SYVLTQPPSVSVAPGKTARITCSGDSLGSYFVHWYQQKPGQSPVLVIYDDSKRPSGIPERFSGSNKGNTATLTISGTQAMDEADYYCSAFTHNSDVFGGGTKLTVL
notes: as the VH of m20 (R2-001_HC); as the VL of m20 (R2-001_LC) with S67K (Kabat); only the variable regions are written; source: HEK293, transient, purified from conditioned medium (protein A, TMAE, HIC)
In series [2], B6 had a koff of 0.000396 s⁻¹.

B7: R2-018 (antibody, V domains shown)
VH: EVQLLQSGGGLVKPGGSLRLSCAASGFTFSSYAMSWVRQAPGKGLEWVSYISDDGSLKYYADSVKGRFTISRDNSKNTLYLQMNSLRAEDTAVYYCARHPYWYGGQLDLWGQGTLVTVSS
VL: SYVLTQPPSVSVAPGKTARITCSGNSLGSYFVHWYQQKPGQSPVLVIYDDSKRPSGIPERFSGSNSGNTATLTISGTQAMDEADYYCSAFTHNSDVFGGGTKLTVL
notes: as the VH of m20 (R2-001_HC); as the VL of m20 (R2-001_LC) with D26N (Kabat); only the variable regions are written; source: HEK293, transient, purified from conditioned medium (protein A, TMAE, HIC)
Regarding B7, the off-rate constant (koff) in series [2] is 0.000386 s⁻¹.

B8: R2-005 (antibody, V domains shown)
VH: EVQLLQSGGGLVKPGGSLRLSCAASGFTFSSYAMSWVRQAPGKGLEWVSYISDDGSLKYYADSVKGRFTISRDNSKNTLYLQMNSLRAEDTAVYYCARHPYWYGGQLDLWGQGTLVTVSS
VL: SYVLTQPPSVSVAPGKTARITCSGDSLGSYFVHWYQQKPGQSPVLVIRDDSKRPSGIPERFSGSNSGNTATLTISGTQAMDEADYYCSAFTHNSDVFGGGTKLTVL
notes: as the VH of m20 (R2-001_HC); as the VL of m20 (R2-001_LC) with Y49R (Kabat); only the variable regions are written; source: HEK293, transient, purified from conditioned medium (protein A, TMAE, HIC)
B8: in series [2], the koff came out at 0.000348 s⁻¹. The koff values of the last two molecules are within 1.5-fold of each other.

B9: R2-022 (antibody, V domains shown)
VH: EVQLLQSGGGLVKPGGSLRLSCAASGFTFSSYAMSWVRQAPGKGLEWVSYISDDGSLKYYADSVKGRFTISRDNSKNTLYLQMNSLRAEDTAVYYCARHPYWYGGQLDLWGQGTLVTVSS
VL: SYVLTQPPSVSVAPGKTARITCSGDSLGSYFVHWYQQKPGQSPVLVIYDDSKRPSGIPERFSGSNSGNTATLTISGTQAMDEADYYCSAFTHNSNVFGGGTKLTVL
notes: as the VH of m20 (R2-001_HC); as the VL of m20 (R2-001_LC) with D96N (Kabat); only the variable regions are written; source: HEK293, transient, purified from conditioned medium (protein A, TMAE, HIC)
B9 displayed a koff in series [2] of 0.000361 s⁻¹.

The term Kd denotes a measure of binding affinity in units of concentration. Lower therefore signals a tighter complex. What is called koff is the rate constant with which the complex falls apart. By kon is commonly meant the second-order rate constant of association.
